Reference: patent publication US7732162

Columns and labels:
H-Gln-Gly-Pro-OH = system: T1, H-Gln-Gly-Pro-OH
T1 sequence: QGP

H-Gln-Gly-OH = system: T2, H-Gln-Gly-OH
T2 sequence: QG

H-Gln-Glu-Tyr-Ala-NH2 = system: T3, H-Gln-Glu-Tyr-Ala-NH2
T3 sequence: QEYA

[1] = system: T4, H-Gln-Ala-Ala-Ser-Ala-Ala-NH2
T4 sequence: QAASAA

H-Gln-Glu-Ala-Phe-NH2 = system: T5, H-Gln-Glu-Ala-Phe-NH2
T5 sequence: QEAF

H-Gln-Glu-Asp-Leu-NH2 = system: T6, H-Gln-Glu-Asp-Leu-NH2
T6 sequence: QEDL

H-Gln-Lys-Arg-Leu-NH2 = system: T7, H-Gln-Lys-Arg-Leu-NH2
T7 sequence: QKRL

H-Gln-Arg-Tyr-Phe-NH2 = system: T8, H-Gln-Arg-Tyr-Phe-NH2
T8 sequence: QRYF

H-Gln-Tyr-Ala-OH = system: T9, H-Gln-Tyr-Ala-OH
T9 sequence: QYA

H-Gln-Ala-OH = system: T10, H-Gln-Ala-OH
T10 sequence: QA

H-Gln-Phe-Ala-NH2 = system: T11, H-Gln-Phe-Ala-NH2
T11 sequence: QFA

[2] = system: T12, H-βhomoGln-Phe-Lys-Arg-Leu-Ala-NH2
T12 sequence: QFKRLA

H-Gln-Glu-OH = system: T13, H-Gln-Glu-OH
T13 sequence: QE

[Gln^1]-GnRH = system: T14, [Gln^1]-GnRH
T14 sequence: QHWSYGLRPG

H-Gln-Gln-Tyr-Phe-NH2 = system: T15, H-Gln-Gln-Tyr-Phe-NH2
T15 sequence: QQYF

H-Gln-Asn-Gly-Ile-NH2 = system: T16, H-Gln-Asn-Gly-Ile-NH2
T16 sequence: QNGI

H-Gln-Trp-Ala-NH2 = system: T17, H-Gln-Trp-Ala-NH2
T17 sequence: QWA

H-Gln-Ala-NH2 = system: T18, H-Gln-Ala-NH2
T18 sequence: QA

H-Gln-Ala-Ala-NH2 = system: T19, H-Gln-Ala-Ala-NH2
T19 sequence: QAA

H-Gln-His-Tyr-Phe-NH2 = system: T20, H-Gln-His-Tyr-Phe-NH2
T20 sequence: QHYF

[Gln^1]-FPP = system: T21, [Gln^1]-FPP
T21 sequence: QEP

H-Gln-Glu-Ala-Ala-NH2 = system: T22, H-Gln-Glu-Ala-Ala-NH2
T22 sequence: QEAA

[Gln^3]-glucagon(3-29) = [Gln^3]-glucagon(3-29) (UniProt P01275)
[3] = system: T23, [Gln^5]-substance P(5-11)
T23 sequence: QQFFGLM

[4] = system: T24, H-Gln-Ala-Ala-Ala-Ala-NH2
T24 sequence: QAAAA

[Gln^1]-Gastrin = system: T25, [Gln^1]-Gastrin
T25 sequence: QGPWLEEEEEAYGWMDF

H-Gln-Pro-Tyr-Phe-NH2 = system: T26, H-Gln-Pro-Tyr-Phe-NH2
T26 sequence: QPYF

H-Gln-Gln-OH = system: T27, H-Gln-Gln-OH
T27 sequence: QQ

H-Gln-Glu-Tyr-Phe-NH2 = system: T28, H-Gln-Glu-Tyr-Phe-NH2
T28 sequence: QEYF

H-Gln-Arg-Gly-Ile-NH2 = system: T29, H-Gln-Arg-Gly-Ile-NH2
T29 sequence: QRGI

[5] = system: T30, H-Gln-cyclo(Nε-Lys-Arg-Pro-Ala-Gly-Phe)
T30 sequence: QKRPAGF

H-Gln-Ser-Tyr-Phe-NH2 = system: T31, H-Gln-Ser-Tyr-Phe-NH2
T31 sequence: QSYF

H-Gln-Glu-Tyr-NH2 = system: T32, H-Gln-Glu-Tyr-NH2
T32 sequence: QEY

Chain of [Gln^3]-glucagon(3-29) (P01275 whole entry, looked up, tested part not stated): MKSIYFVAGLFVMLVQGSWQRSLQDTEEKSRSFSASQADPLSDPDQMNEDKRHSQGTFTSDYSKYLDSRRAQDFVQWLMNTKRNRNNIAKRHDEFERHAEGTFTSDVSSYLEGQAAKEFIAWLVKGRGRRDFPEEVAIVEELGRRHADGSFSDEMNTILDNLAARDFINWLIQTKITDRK

“QC from papaya latex (Carica papaya glutaminyl cyclase)” showed a KM (H-Gln-Gly-Pro-OH) of 333 µM, a KM (H-Gln-Gly-OH) of 641 µM and a KM (H-Gln-Glu-Tyr-Ala-NH2) of 113 µM. The KM [1] was 216 µM, the KM (H-Gln-Glu-Ala-Phe-NH2) was 81 µM and the KM (H-Gln-Glu-Asp-Leu-NH2) was 107 µM. For the same substance, the KM (0.05 M Tricine-NaOH, pH 8.0) (H-Gln-Glu-Asp-Leu-NH2) was 0.109 mM, the KM (0.05 M Tricine-NaOH, pH 8.0, 0.5 M KCl) (H-Gln-Glu-Asp-Leu-NH2) was 0.094 mM and the KM (H-Gln-Lys-Arg-Leu-NH2) was 118 µM. The KM (0.05 M Tricine-NaOH, pH 8.0) (H-Gln-Lys-Arg-Leu-NH2) was 0.102 mM, the KM (0.05 M Tricine-NaOH, pH 8.0, 0.5 M KCl) (H-Gln-Lys-Arg-Leu-NH2) was 0.053 mM and the KM ([Gln^1]-Neurotensin) was 40 µM. For the same substance, the KM (H-Gln-Arg-Tyr-Phe-NH2) was 124 µM, the KM (H-Gln-Tyr-Ala-OH) was 63 µM and the KM (H-Gln-Ala-OH) was 158 µM. It also gave a KM (0.05 M Tricine-NaOH, pH 8.0) (H-Gln-Ala-OH) of 0.137 mM, a KM (0.05 M Tricine-NaOH, pH 8.0, 0.5 M KCl) (H-Gln-Ala-OH) of 0.143 mM and a KM (H-Gln-Phe-Ala-NH2) of 111 µM. The KM [2] was “KM=3.1±0.3 mM”, the KM (H-Gln-Glu-OH) was 106 µM and the KM (0.05 M Tricine-NaOH, pH 8.0) (H-Gln-Glu-OH) was 0.098 mM. For the same substance, the KM (0.05 M Tricine-NaOH, pH 8.0, 0.5 M KCl) (H-Gln-Glu-OH) was 0.094 mM, the KM ([Gln^1]-GnRH) was 169 µM and the KM (H-Gln-Gln-Tyr-Phe-NH2) was 45 µM. The KM (H-Gln-Asn-Gly-Ile-NH2) was 153 µM, the KM (H-Gln-Trp-Ala-NH2) was 78 µM and the KM (0.05 M Tricine-NaOH, pH 8.0) (H-Gln-Trp-Ala-NH2) was 0.079 mM. It also gave a KM (0.05 M Tricine-NaOH, pH 8.0, 0.5 M KCl) (H-Gln-Trp-Ala-NH2) of 0.072 mM, a KM (H-Gln-Ala-NH2) of 212 µM and a KM (H-Gln-Ala-Ala-NH2) of 164 µM. The KM (H-Gln-His-Tyr-Phe-NH2) was 92 µM, the KM ([Gln^1]-FPP) was 232 µM and the KM (H-Gln-Glu-Ala-Ala-NH2) was 102 µM. For the same substance, the “substrate conversion (kcat/KM column)” value ([Gln^3]-glucagon(3-29)) was “*”, the “substrate conversion (kcat/KM column)” value [3] was “*” and the KM [4] was 197 µM. The KM ([Gln^1]-Gastrin) was 34 µM, the KM (H-Gln-Pro-Tyr-Phe-NH2) was 149 µM and the KM (H-Gln-Gln-OH) was 44 µM. The KM (H-Gln-Glu-Tyr-Phe-NH2) was 100 µM, the KM (H-Gln-Arg-Gly-Ile-NH2) was 123 µM and the KM (0.05 M Tricine-NaOH, pH 8.0) (H-Gln-Arg-Gly-Ile-NH2) was 0.106 mM. The KM (0.05 M Tricine-NaOH, pH 8.0, 0.5 M KCl) (H-Gln-Arg-Gly-Ile-NH2) was 0.065 mM, the KM [5] was “KM-values of 240±14 µM and 133±5 µM for human and papaya QC, respectively” and the KM (H-Gln-Ser-Tyr-Phe-NH2) was 135 µM. For the same substance, the KM (H-Gln-Glu-Tyr-NH2) was 103 µM.
